From patent publication EP0826043B1 come the findings set out here.

Test in all cases: cell-based or functional assay
Assay [1] concerns the target CD3 (TCR/CD3 complex) on Jurkat cells.
Assay [2] concerns the target Fas cell surface receptor (human) (UniProt P25445).
Assay [3] deals with CD28 ligand B7-1 on mouse lymph node accessory cells (mouse) (UniProt Q00609).
Assay [4] has as its target CD28 ligand B7-2 on mouse lymph node accessory cells (mouse) (UniProt P42082).
Chain of UniProt P42082 (P42082 24-309): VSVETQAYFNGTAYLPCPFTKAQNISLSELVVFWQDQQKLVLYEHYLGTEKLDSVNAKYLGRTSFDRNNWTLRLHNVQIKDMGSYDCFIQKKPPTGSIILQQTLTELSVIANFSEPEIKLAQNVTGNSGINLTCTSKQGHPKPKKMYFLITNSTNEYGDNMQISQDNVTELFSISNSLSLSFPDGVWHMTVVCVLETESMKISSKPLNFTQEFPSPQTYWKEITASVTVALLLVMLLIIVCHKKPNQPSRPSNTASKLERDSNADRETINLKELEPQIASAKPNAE

Chain of UniProt Q00609 (Q00609 38-306): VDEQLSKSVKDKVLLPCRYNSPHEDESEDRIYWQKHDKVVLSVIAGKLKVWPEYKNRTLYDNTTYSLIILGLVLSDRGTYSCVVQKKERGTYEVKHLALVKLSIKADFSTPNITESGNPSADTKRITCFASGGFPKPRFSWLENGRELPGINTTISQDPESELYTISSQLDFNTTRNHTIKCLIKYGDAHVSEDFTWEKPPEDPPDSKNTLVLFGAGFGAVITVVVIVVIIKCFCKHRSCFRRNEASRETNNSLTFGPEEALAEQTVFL
Chain of UniProt P25445 (P25445 26-335): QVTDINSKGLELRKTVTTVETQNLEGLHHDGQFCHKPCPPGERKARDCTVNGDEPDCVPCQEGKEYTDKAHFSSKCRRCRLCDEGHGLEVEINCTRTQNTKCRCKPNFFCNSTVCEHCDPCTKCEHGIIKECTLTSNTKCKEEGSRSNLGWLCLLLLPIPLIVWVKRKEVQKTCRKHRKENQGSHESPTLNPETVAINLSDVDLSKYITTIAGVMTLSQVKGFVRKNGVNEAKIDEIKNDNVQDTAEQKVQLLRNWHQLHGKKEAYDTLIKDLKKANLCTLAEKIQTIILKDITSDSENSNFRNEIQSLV

For anti-CD3 (OKT3) (antibody), in assay [1], the cell death of Neo Jurkat clones treated with plate bound anti-CD3 (propidium iodide exclusion) lay in the range of 30 to 60%.
In turn, “CH-11 anti-Fas monoclonal antibody (Panvera)” came in with a viability (propidium iodide exclusion) of control (Neo) Jurkat transfectants treated with Fas antibody at 10 ng/ml in assay [2] below 10%.
Regarding CTLA4Ig (from Repligen) (Fc fusion), the viability of activated Thy-1 positive T cells at 72 hrs in assay [3] and in assay [4] was 20% in each case.
